# According to IntAct's records for PubMed 29039417:
# B1: BBSome complex member BBS1 (Homo sapiens), Q8NFJ9 (parent)
# chain: MAAASSSDSDACGAESNEANSKWLDAHYDPMANIHTFSACLALADLHGDGEYKLVVGDLGPGGQQPRLKVLKGPLVMTESPLPALPAAAATFLMEQHEPRTPALALASGPCVYVYKNLRPYFKFSLPQLPPNPLEQDLWNQAKEDRIDPLTLKEMLESIRETAEEPLSIQSLRFLQLELSEMEAFVNQHKSNSIKRQTVITTMTTLKKNLADEDAVSCLVLGTENKELLVLDPEAFTILAKMSLPSVPVFLEVSGQFDVEFRLAAACRNGNIYILRRDSKHPKYCIELSAQPVGLIRVHKVLVVGSTQDSLHGFTHKGKKLWTVQMPAAILTMNLLEQHSRGLQAVMAGLANGEVRIYRDKALLNVIHTPDAVTSLCFGRYGREDNTLIMTTRGGGLIIKILKRTAVFVEGGSEVGPPPAQAMKLNVPRKTRLYVDQTLREREAGTAMHRAFQTDLYLLRLRAARAYLQALESSLSPLSTTAREPLKLHAVVQGLGPTFKLTLHLQNTSTTRPVLGLLVCFLYNEALYSLPRAFFKVPLLVPGLNYPLETFVESLSNKGISDIIKVLVLREGQSAPLLSAHVNMPGSEGLAAA
# partner: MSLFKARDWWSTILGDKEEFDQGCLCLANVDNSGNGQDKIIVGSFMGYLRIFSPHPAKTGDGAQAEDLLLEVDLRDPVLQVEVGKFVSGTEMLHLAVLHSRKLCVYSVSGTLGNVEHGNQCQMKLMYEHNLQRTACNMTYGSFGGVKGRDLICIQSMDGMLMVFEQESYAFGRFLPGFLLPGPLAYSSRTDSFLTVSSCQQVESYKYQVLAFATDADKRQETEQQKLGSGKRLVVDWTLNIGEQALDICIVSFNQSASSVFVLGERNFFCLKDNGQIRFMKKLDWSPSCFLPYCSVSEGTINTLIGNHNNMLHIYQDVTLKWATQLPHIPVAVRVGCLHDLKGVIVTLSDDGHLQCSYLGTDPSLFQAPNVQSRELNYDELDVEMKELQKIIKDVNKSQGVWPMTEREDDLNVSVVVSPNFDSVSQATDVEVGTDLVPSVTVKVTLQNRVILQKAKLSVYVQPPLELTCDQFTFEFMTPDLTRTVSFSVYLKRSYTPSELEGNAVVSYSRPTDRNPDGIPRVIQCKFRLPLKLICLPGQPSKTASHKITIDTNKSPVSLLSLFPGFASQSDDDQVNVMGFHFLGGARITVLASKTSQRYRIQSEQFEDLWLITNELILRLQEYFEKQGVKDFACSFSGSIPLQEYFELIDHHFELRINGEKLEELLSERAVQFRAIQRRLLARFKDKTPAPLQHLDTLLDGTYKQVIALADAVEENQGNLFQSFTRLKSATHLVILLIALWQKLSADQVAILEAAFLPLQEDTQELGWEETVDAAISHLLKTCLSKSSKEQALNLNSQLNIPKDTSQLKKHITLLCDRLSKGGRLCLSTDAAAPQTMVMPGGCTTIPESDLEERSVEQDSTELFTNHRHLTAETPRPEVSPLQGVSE
# Variants of: B1
# Conditions: with pthb1_human BBS9, Q3SYG4
row,Variant,effect of a mutation on the interaction
1,MAAASSSDSDACGAESNEANSKWLDAHYDPMANIHTFSACLALADLHGDGEYKLVVGDLGPGGQQPRLKVLKGPLVMTESPLPALPAAAATFLMEQHEPRTPALALASGPCVYVYKNLRPYFKFSLPQLPPNPLEQDLWNQAKEDRIDPLTLKEMLESIRETAEEPLSIQSLRFLQLELSEMEAFVNQHKSNSIKRQTVITTMTTLKKNLADEDAVSCLVLGTENKELLVLDPEAFTILAKMSLPSVPVFLEVSGQFDVEFRLAAACRNGNIYILRRDSKHPKYCIELSAQPVGLIRVHKVLVVGSTQDSLHGFTHKGKKLWTVQMPAAILTMNLLEQHSRGLQAVMAGLANGEVRIYRDKALLNVIHTPDAVTSLCFGRYGREDNTLIMTTRGGGLIIKILKRTAVFVEGGSEVGPPPAQAMKLNVPRKTRLYVDQTLREREAGTAMHRAFQTDLYLLRLRAARAYLQALESSLSPLSTTAREPLKLHAVVQGLGPTFKLTLHLQNTSTTRPVLGLLVCFLYNEALYSLPRAFFKVPLLVPGLNYPLETFVESLSNKGISDIIKVLVLREGQSAPLLSEHVNMPGSEGLAAA [A580E],with no effect
2,MAAASSSDSDACGAESNEANSKWLDAHYDPMANIHTFSACLALADLHGDGEYKLVVGDLGPGGQQPRLKVLKGPLVMTESPLPALPAAAATFLMEQHEPRTPALALASGPCVYVYKNLRPYFKFSLPQLPPNPLEQDLWNQAKEDRIDPLTLKEMLESIRETAEEPLSIQSLRFLQLELSEMEAFVNQHKSNSIKRQTVITTMTTLKKNLADEDAVSCLVLGTENKELLVLDPEAFTILAKMSLPSVPVFLEVSGQFDVEFRLAAACRNGNIYILRRDSKHPKYCIELSAQPVGLIRVHKVLVVGSTQDSLHGFTHKGKKLWTVQMPAAILTMNLLEQHSRGLQAVMAGLANGEVRIYRDKALLNVIHTPDAVTSLCFGRYGREDNTLIMTTRGGGLIIKILKRTAVFVEGGSEVGPPPAQAMKLNVPRKTRLYVDQTLREREAGTAMHRAFQTDLYLLRLRAARAYLQALESSLSPLSTTAREPLKLHAVVQGLGPTFKLTLHLQNTSTTRPVLGLLVCFLYNEALYSLPRAFFKVPLLVPGLNYPLETFVESLSNKGISDIIKVLVLREGQSAPLLSKHVNMPGSEGLAAA [A580K],with no effect
3,MAAASSSDSDACGAESNEANSKWLDAHYDPMANIHTFSACLALADLHGDGEYKLVVGDLGPGGQQPRLKVLKGPLVMTESPLPALPAAAATFLMEQHEPRTPALALASGPCVYVYKNLRPYFKFSLPQLPPNPLEQDLWNQAKEDRIDPLTLKEMLESIRETAEEPLSIQSLRFLQLELSEMEAFVNQHKSNSIKRQTVITTMTTLKKNLADEDAVSCLVLGTENKELLVLDPEAFTILAKMSLPSVPVFLEVSGQFDVEFRLAAACRNGNIYILRRDSKHPKYCIELSAQPVGLIRVHKVLVVGSTQDSLHGFTHKGKKLWTVQMPAAILTMNLLEQHSRGLQAVMAGLANGEVRIYRDKALLNVIHTPDAVTSLCFGRYGREDNTLIMTTRGGGLIIKILKRTAVFVEGGSEVGPPPAQAMKLNVPRKTRLYVDQTLREREAGTAMHRAFQTDLYLLRLRAARAYLQALESSLSPLSTTAREPLKLHAVVQGLGPTFKLTLHLQNTSTTRPVLGLLVCFLYNEALYSLPRAFFKVPLLVPGLNYPLETFVESLSNKGISDIIKVLVLREGQSAPLLEAHVNMPGSEGLAAA [S579E],with no effect
4,MAAASSSDSDACGAESNEANSKWLDAHYDPMANIHTFSACLALADLHGDGEYKLVVGDLGPGGQQPRLKVLKGPLVMTESPLPALPAAAATFLMEQHEPRTPALALASGPCVYVYKNLRPYFKFSLPQLPPNPLEQDLWNQAKEDRIDPLTLKEMLESIRETAEEPLSIQSLRFLQLELSEMEAFVNQHKSNSIKRQTVITTMTTLKKNLADEDAVSCLVLGTENKELLVLDPEAFTILAKMSLPSVPVFLEVSGQFDVEFRLAAACRNGNIYILRRDSKHPKYCIELSAQPVGLIRVHKVLVVGSTQDSLHGFTHKGKKLWTVQMPAAILTMNLLEQHSRGLQAVMAGLANGEVRIYRDKALLNVIHTPDAVTSLCFGRYGREDNTLIMTTRGGGLIIKILKRTAVFVEGGSEVGPPPAQAMKLNVPRKTRLYVDQTLREREAGTAMHRAFQTDLYLLRLRAARAYLQALESSLSPLSTTAREPLKLHAVVQGLGPTFKLTLHLQNTSTTRPVLGLLVCFLYNEALYSLPRAFFKVPLLVPGLNYPLETFVESLSNKGISDIIKVLVLREGQSAPLLAAHVNMPGSEGLAAA [S579A],with no effect
5,MAAASSSDSDACGAESNEANSKWLDAHYDPMANIHTFSACLALADLHGDGEYKLVVGDLGPGGQQPRLKVLKGPLVMTESPLPALPAAAATFLMEQHEPRTPALALASGPCVYVYKNLRPYFKFSLPQLPPNPLEQDLWNQAKEDRIDPLTLKEMLESIRETAEEPLSIQSLRFLQLELSEMEAFVNQHKSNSIKRQTVITTMTTLKKNLADEDAVSCLVLGTENKELLVLDPEAFTILAKMSLPSVPVFLEVSGQFDVEFRLAAACRNGNIYILRRDSKHPKYCIELSAQPVGLIRVHKVLVVGSTQDSLHGFTHKGKKLWTVQMPAAILTMNLLEQHSRGLQAVMAGLANGEVRIYRDKALLNVIHTPDAVTSLCFGRYGREDNTLIMTTRGGGLIIKILKRTAVFVEGGSEVGPPPAQAMKLNVPRKTRLYVDQTLREREAGTAMHRAFQTDLYLLRLRAARAYLQALESSLSPLSTTAREPLKLHAVVQGLGPTFKLTLHLQNTSTTRPVLGLLVCFLYNEALYSLPRAFFKVPLLVPGLNYPLETFVESLSNKGISDIIKVLVLREGQSAPLLKAHVNMPGSEGLAAA [S579K],with no effect
